The text below walks through data of patent publication US10806804B2, “Compounds having RD targeting motifs and methods of use thereof” (Washington University, priority 2015, dated 2020).

Positions of bridges follow the written chain, without caps; N, C: chain ends. Non-standard residues stand in square brackets, D forms with d. Residues, ends and D or L forms follow the SMILES beside them. Primed or numbered codes have the meaning given here. *: point of attachment. Cypate = CC1(C)C(/C=C/C=C/C=C/C=C2/N(CCC(=O)*)c3ccc4ccccc4c3C2(C)C)=[N+](CCC(=O)O)c2ccc3ccccc3c21; Cypate′ = not defined here

In data set [1] the target is T1, albumin (Homo sapiens, UniProt P02768). The conditions noted are these: carbocyanine dyes, previous study; cited from earlier work.
Data set [2] concerns 4T1 luc. Put plainly: in vivo tumor targeting / fluorescence imaging of probes compared with LS301. The arrangement: species or system Balb/c. The following applies: Tyr adjacent to the cypate. As to the method:
FIG. 5 depicts images showing LS838 for fluorescence and nuclear (PET and or SPECT) imaging. 4T1 luc in Balb/c; 100 μl of 50 μM LS838.
FIG. 6 depicts the distribution of LS838 in tissue at 24 hours.
A variety of probes which have similar sequence compared to LS301 were designed and prepared (Table 1). The probes have different peptide sequences, D-, L-amino acid variations or different groups on C-terminus. The sequences of the probes were tested by LC-MS and the spectroscopy properties were recorded. The performances of the tumor targeting abilities were also tested in vivo. […] It was unexpected that LS838 would be brighter relative to LS301 and it is unknown to us why it does. However, the enhanced brightness allows the use of smaller amounts of material to achieve the same uptake kinetics and accumulation as LS301. FIG. 5 depicts the accumulation of LS838 in vivo and FIG. 6 graphically quantifies the intensity of LS838 in various organs. […] LS838 labeled can be labeled with radionuclides such as radio-iodine, bromine, or fluorine for combined optical and nuclear imaging.

Data set [3] addresses T1, albumin. Briefly: binding of carbocyanine dyes and LS838 to albumin (binding constant K). The source says:
The hypothesis is that the binding of cypate to albumin facilitates the internalization of LS838 in PDAC/PanIN lesions. In a previous study, the binding of some carbocyanine dyes to albumin was compared. […] It was also shown that conjugation of peptides to the dyes decreases the K by a factor of ˜10. Using the same method, we determined the K value of LS838 to be 86,000 M^−1.

The subject of data set [4] is PDAC. The arrangement: species or system mice. The following applies: mouse, in vivo. The source says:
To overcome this problem, the use of peptides as a tumor-trapping mechanism was explored. The highly reducing environment of tumor cells is known to reduce disulfide bonds to thiols, which can trans-thiolate with cysteine-containing intracellular proteins to trap the molecular probe. Therefore, a variety of disulfide-containing peptides were conjugated to cypate and the compounds were screened in mice with advanced stage PDAC. […] Replacement of the D-Cysteine with the natural L-Cysteine residue abrogates this retention.

The conditions of data set [5]: in vivo. The source says: While this is not a problem in the proposed laparoscopy, the excretion route to the kidneys can be altered by conjugating positively charged moieties (—^+NMe3) or nonionic groups (e.g. PEG) to the free carboxylic acid group of cypate. […] In the unlikely event that the cyanine dyes are photo-unstable, they will be replaced with NIR pyrrolopyrrole cyanine dyes (PPCy), which are highly photostable and have exceptionally high fluorescence quantum yields (up to 80%).

Data set [6] relates to pancreas tumor cells. The conditions noted are these: in vivo.
The subject of data set [7] is tumor cells. Put plainly: NIR fluorescence microscopy of uptake and trafficking in cells. Format: cell-based. The conditions noted are these: dye alone. How it is done: FIG. 8A and FIG. 8B depict uptake of LS838 in 4T1 luc cells showing internalization of the probe in the cells at 1 h (FIG. 8A) and 4 h (FIG. 8B) post incubation. Most cells show localization in the lysosomes at early time points, but the punctate fluorescence became more diffuse at 24 h, indicating translocation to the cytosol. Uptake in the mitochondria was negligible. Color scheme: cyan, Mitotracker; green, lysotracker; and red, LS838. (FIG. 8C) Internalization of LS838 in cells was inhibited by Filipinin, an inhibitor of albumin endocytosis via the gp60 pathway. A similar inhibition was observed when Alexa-680 dye labeled albumin (BSA; blue) was mixed with LS838.
At early time points, LS838 is largely in the lysosomes, but it translocates to the cytosol in a time-dependent manner. […]
Aggresomes are microtubule-catalyzed aggregates of […] that are used to degrade particularly stable and aggregated proteins. […] It will be evaluated if tumors have a lower ability to form aggresomes because of microtubule dysfunction, leading to prolonged retention in tumor cells compared to normal cells. If LS838 induces aggresome formation in tumor cells, but not fibroblasts will first be determined. […] It will also be determined if aggresomes form in vivo using a literature method. […] Aggresome formation will be determined by staining muscle, skin, and tumors for anti-ubiquitin protein. […]

Data set [8] has as its system PDAC. Briefly: in vivo uptake/contrast in PDAC relative to uninvolved pancreas. The source says: A similar trend is observed in vivo, where preferential uptake in PDAC relative to uninvolved pancreas is […]. […] Permutation of the arginine-aspartic acid sequence results in a loss of PDAC-selective uptake. It has been shown that cypate binds to the hydrophobic pockets of albumin, irrespective of the source (human, murine, or bovine). […] Thus, the primary goal of this study is to determine the role of the peptide in tumor cell internalization or retention. Based on preliminary data, this question can be addressed by preparing the following cypate-labeled peptides (underlined amino acids are changes made to LS838): […]

T1 sequence (P02768 25-609, species assumed): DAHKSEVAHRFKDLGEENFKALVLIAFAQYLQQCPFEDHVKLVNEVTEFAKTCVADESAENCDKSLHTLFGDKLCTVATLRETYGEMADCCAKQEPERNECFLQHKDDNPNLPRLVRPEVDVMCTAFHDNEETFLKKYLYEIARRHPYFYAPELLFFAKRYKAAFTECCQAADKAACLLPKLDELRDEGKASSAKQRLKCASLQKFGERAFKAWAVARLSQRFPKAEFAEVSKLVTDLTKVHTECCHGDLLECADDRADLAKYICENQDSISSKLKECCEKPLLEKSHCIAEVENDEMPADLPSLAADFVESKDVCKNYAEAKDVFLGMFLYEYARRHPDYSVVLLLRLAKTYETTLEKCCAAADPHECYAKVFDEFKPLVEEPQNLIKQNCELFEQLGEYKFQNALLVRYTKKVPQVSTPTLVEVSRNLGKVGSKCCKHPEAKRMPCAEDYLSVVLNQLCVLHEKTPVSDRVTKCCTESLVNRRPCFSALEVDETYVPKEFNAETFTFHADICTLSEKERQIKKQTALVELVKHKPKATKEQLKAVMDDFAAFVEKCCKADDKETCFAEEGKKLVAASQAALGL

Regarding `CC1(C)C(/C=C/C=C/C=C/C=C2\N(CCCCS(=O)(=O)O)c3ccc4ccccc4c3C2(C)C)=[N+](CCCCS(=O)(=O)[O-])c2ccc3ccccc3c21` [ICG, indocyanine green], the “binding constant (K) to albumin” value in data set [1] is given as 554,000 M^−1.

For the molecule `CC1(C)C(/C=C/C=C/C=C/C=C2/N(CCC(=O)N[C@@H](Cc3ccc(O)cc3)C(=O)N[C@@H]3CSSC[C@@H](C(=O)N[C@@H](CCCCN)C(=O)O)NC(=O)[C@@H]4CCCN4C(=O)[C@H](CO)NC(=O)[C@H](CC(=O)O)NC(=O)[C@H](CCCNC(=N)N)NC(=O)CNC3=O)c3ccc4ccccc4c3C2(C)C)=[N+](CCC(=O)O)c2ccc3ccccc3c21` [LS747, Cypate-Tyr-Cyclo(DCys-Gly-Arg-Asp-Ser-Pro-Cys)-Lys-OH] (Cypate-Y[dC]GRDSPCK-OH; disulfide 2-8), the “retention in tumors after in vivo administration” value in data set [2] is on record as “rapid loss of retention in tumors”.

In general, Kd refers to the free concentration of one partner at which half of the binding sites on the other are occupied at equilibrium, for simple one-to-one binding. A lower Kd goes with a tighter complex. `CC1(C)C(/C=C/C=C/C=C/C=C2/N(CCC(=O)N[C@@H]3CSSC[C@@H](C(=O)N[C@@H](Cc4ccc(O)cc4)C(=O)O)NC(=O)[C@@H]4CCCN4C(=O)[C@H](CO)NC(=O)[C@H](CC(=O)O)NC(=O)[C@H](CCCNC(=N)N)NC(=O)CNC3=O)c3ccc4ccccc4c3C2(C)C)=[N+](CCC(=O)O)c2ccc3ccccc3c21` [LS838, Cypate-Cyclo(DCys-Gly-Arg-Asp-Ser-Pro-Cys)-Tyr-OH] (Cypate-[dC]GRDSPCY-OH; disulfide 1-7) gave an equilibrium dissociation constant (Kd) in data set [3] of 11.6 µM. The “selective retention in tumors (duration)” value in data set [4] is “over 48 h”. In data set [5], the clearance route entry is “clears through the liver”. Besides, in data set [6], the “time remaining primarily in the tumor cells relative to non-tumor cells” value was “up to 100 h” and the “time to internalization in the pancreas” value is at most 1 h.

Take `CC1(C)C(/C=C/C=C/C=C/C=C2/N(CCC(=O)O)c3ccc4ccccc4c3C2(C)C)=[N+](CCC(=O)[O-])c2ccc3ccccc3c21` [cypate]: the “efflux from tumor cells after transfer to new culture medium” value in data set [7] was “rapidly effluxes”. In data set [8], the “preferential uptake in PDAC relative to uninvolved pancreas” value is reported as “not observed”. For the same molecule, the “binding constant (K) to albumin” value in data set [1] is 556,000 M^−1.

For the molecule “Tyr-Cypate-Cyclo(DCys-Gly-Arg-Asp-Ser-Pro-Cys)-Lys-NH2 ({Tyr-Cypate′}-[dC]GRDSPCK-NH2; disulfide 1-7 (inferred)) [LS758]”, the “retention in tumors after in vivo administration” value in data set [2] was “rapid loss of retention in tumors”.
